These results are taken from article PMC7891725, “Shared and distinct roles of Esc2 and Mms21 in suppressing genome rearrangements and regulating intracellular sumoylation” (PLoS ONE, 2021).

The experiment has as its target T1, N-terminal Protein-A tagged Esc2 (WT) (S. cerevisiae, UniProt Q06340 1-456).
T1 construct: Esc2, S. cerevisiae, protein with two SUMO-like domains (SLD1, SLD2); details of plasmid construction are available upon request; also called WT Esc2; ScEsc2; source: bacteria (BL21 cells), purified with IgG sepharose resin; not shown: Protein A, N-terminal, kept
T1 sequence (looked up): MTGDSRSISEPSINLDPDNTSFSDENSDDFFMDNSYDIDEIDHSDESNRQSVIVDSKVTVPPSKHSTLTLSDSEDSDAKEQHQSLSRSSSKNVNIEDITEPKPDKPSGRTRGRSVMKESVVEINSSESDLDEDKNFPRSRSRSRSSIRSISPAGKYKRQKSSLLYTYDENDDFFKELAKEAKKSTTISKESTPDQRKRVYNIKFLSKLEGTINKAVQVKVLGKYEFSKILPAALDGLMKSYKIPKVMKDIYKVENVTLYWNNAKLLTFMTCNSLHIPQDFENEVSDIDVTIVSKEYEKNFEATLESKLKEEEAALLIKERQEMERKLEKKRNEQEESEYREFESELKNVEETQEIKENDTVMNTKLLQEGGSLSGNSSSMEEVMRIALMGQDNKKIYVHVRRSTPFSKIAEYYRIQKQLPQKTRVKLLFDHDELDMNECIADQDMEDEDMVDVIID
The experiment can be described thus: pull-down; 40 ug Protein-A-Esc2 (WT or D430R) bound to 20 uL IgG resin, incubated with 100 ug purified Ubc9 in 200 uL for 2 hours on ice; washed 5 times with PBS with 0.2% NP-40; bound Ubc9 eluted and seen by Coomassie staining. The following applies: both partners purified.

B1: C-terminal 6xHIS tagged Ubc9 (enzyme, S. cerevisiae, UniProt P50623 1-157, looked up)
chain: MSSLCLQRLQEERKKWRKDHPFGFYAKPVKKADGSMDLQKWEAGIPGKEGTNWAGGVYPITVEYPNEYPSKPPKVKFPAGFYHPNVYPSGTICLSILNEDQDWRPAITLKQIVLGVQDLLDSPNPNSPAQEPAWRSFSRNKAEYDKKVLLQAKQYSK
notes: Ubc9, SUMO E2 conjugating enzyme, S. cerevisiae; also called Ubc9 SUMO conjugating enzyme; E2
As for B1, the binding result is “binds”.
